# Reference: patent publication US20140227782A1 (UMUVERSIDAD DE VALLADOLID, published 2014)
# T1: Modified biopolymer 3' (biopolymer 3, 427 amino acids, structure D-B84, with amino groups transformed into … (amino groups of the lysines of peptide D transformed into azide groups (lysine transformation rate 50%); covalently grafted to alkynyl-functionalised glass by click cycloaddition)
# T1 construct: In the assay it was grafted to a glass surface through 1,2,3-triazole links; also called POLYM; 3'
# T1 chain: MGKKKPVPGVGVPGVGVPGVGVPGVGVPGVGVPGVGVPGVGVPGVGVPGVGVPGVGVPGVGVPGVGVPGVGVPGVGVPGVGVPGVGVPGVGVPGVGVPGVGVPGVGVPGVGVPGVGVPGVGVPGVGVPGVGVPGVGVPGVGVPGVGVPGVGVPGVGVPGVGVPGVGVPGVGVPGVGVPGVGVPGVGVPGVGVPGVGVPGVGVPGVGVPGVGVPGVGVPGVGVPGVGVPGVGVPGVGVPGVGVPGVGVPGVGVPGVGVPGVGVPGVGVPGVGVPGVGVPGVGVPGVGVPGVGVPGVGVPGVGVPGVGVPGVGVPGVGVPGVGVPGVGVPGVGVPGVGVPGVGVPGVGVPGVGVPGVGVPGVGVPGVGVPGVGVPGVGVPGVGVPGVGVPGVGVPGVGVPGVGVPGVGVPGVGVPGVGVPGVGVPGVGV
# B1: Biopolymer 4 (371 amino acids), structure B14-A2-B14 (other)
# chain: MESLLPVPGVGVPGVGVPGVGVPGVGVPGVGVPGVGVPGVGVPGVGVPGVGVPGVGVPGVGVPGVGVPGVGVPGVGVPGIGVPGIGVPGIGVPGIGVPGIGVPGIGVPGIGVPGIGVPGIGVPGIGAVTGRGDSPASSVPGIGVPGIGVPGIGVPGIGVPGIGVPGIGVPGIGVPGIGVPGIGVPGIGVPGIGVPGIGVPGIGVPGIGVPGIGVPGIGVPGIGVPGIGVPGIGVPGIGAVTGRGDSPASSVPGIGVPGIGVPGIGVPGIGVPGIGVPGIGVPGIGVPGIGVPGIGVPGIGVPGVGVPGVGVPGVGVPGVGVPGVGVPGVGVPGVGVPGVGVPGVGVPGVGVPGVGVPGVGVPGVGVPGVGV
# notes: Unmodified polymer 4, adsorbed from aqueous solution onto the surface grafted with polymer 3'; also called POLYM
# Biological target: T1, Modified biopolymer 3' (biopolymer 3, …)
# Assay: ToF-SIMS of a glass surface grafted with polymer 3' after immersion in an aqueous solution of polymer 4
binder,measurement,value
B1,binding result,binds
